Experimental data taken from US20160251438A1 (LUDWIG INSTITUTE FOR CANCER RESEARCH, published 2016).

Tests used:
[1] = target: GARP M111T/A112G/T113M / TGF-β1 complex (human, UniProt Q14392 20-662; P01137 30-390); experiment: FACS titration on transfected 293T; EC50 mutant / EC50 WT [cont.) B]
Procedure: (§1) Intensities of staining at each concentration of antibody relative to the maximal intensity measured at 5 μg/ml were determined as follows:
(§2) The relative staining intensities were plotted according to the concentration of antibody used for staining, and a non-linear regression analysis was used with the Prism software to determine an EC₅₀ value for binding of the antibody to the WT and to each of the various mutant GARP/TGF-β1 complexes. If the ratio between the EC₅₀ measured on the mutant and the EC₅₀ measured on the WT was >2, the mutation was considered to induce a reduced avidity for binding by the antibody. The ratio of EC₅₀ (mutant vs WT) for MHG-8 and LHG-10 are indicated below each mutation on FIG. 19, parts A and B, respectively.

[2] = target: GARP G139N / TGF-β1 complex (human, UniProt Q14392 20-662; P01137 30-390); experiment: as above
Sequence of GARP G139N / TGF-β1 complex (Q14392 20-662 G139N limits assumed, chain 1 of 2): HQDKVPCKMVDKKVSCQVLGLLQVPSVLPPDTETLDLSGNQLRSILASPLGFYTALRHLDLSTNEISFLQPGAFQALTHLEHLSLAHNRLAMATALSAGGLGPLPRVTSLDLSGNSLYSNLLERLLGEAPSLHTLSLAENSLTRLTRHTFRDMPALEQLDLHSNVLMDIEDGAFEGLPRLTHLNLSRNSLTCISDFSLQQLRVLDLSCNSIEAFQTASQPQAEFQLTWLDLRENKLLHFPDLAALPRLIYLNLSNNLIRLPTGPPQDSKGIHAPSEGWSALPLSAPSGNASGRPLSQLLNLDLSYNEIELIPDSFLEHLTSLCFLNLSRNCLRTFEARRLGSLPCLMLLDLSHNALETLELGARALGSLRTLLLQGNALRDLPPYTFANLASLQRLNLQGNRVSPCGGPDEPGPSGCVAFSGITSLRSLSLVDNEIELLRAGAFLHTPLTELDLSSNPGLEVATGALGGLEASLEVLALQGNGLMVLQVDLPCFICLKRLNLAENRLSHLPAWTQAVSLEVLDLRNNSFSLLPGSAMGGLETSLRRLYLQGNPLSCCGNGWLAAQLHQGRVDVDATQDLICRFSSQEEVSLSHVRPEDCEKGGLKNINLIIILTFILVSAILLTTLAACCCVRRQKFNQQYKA
Sequence of GARP G139N / TGF-β1 complex (P01137 30-390 limits assumed, chain 2 of 2): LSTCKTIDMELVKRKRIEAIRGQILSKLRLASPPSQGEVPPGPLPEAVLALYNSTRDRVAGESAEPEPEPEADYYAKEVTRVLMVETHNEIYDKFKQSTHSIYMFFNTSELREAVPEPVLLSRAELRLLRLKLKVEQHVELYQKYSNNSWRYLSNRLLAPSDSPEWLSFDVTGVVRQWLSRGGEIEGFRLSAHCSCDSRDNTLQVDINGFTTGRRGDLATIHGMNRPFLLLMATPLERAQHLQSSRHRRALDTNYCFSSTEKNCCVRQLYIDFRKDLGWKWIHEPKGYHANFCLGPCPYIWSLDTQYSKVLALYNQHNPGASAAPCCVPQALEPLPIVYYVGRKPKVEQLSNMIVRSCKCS
Procedure: as §1, §2

[3] = target: GARP L140K/E142L / TGF-β1 complex (human, UniProt Q14392 20-662; P01137 30-390); experiment: as above
Sequence of GARP L140K/E142L / TGF-β1 complex (Q14392 20-662 L140K/E142L limits assumed, chain 1 of 2): as the sequence (Q14392 20-662 G139N limits assumed, chain 1 of 2) above, with N120G, L121K, E123L counted along it
Sequence of GARP L140K/E142L / TGF-β1 complex (P01137 30-390 limits assumed, stated change not applied, chain 2 of 2): as the sequence (P01137 30-390 limits assumed, chain 2 of 2) above
Procedure: as §1, §2

[4] = target: T1, GARP R143Y / TGF-β1 complex (human, UniProt Q14392 20-662; P01137 30-390); experiment: as above
T1 sequence (Q14392 20-662 R143Y limits assumed, chain 1 of 2): as the sequence (Q14392 20-662 G139N limits assumed, chain 1 of 2) above, with N120G, R124Y counted along it
T1 sequence (P01137 30-390 limits assumed, chain 2 of 2): as the sequence (P01137 30-390 limits assumed, chain 2 of 2) above
Procedure: as §1, §2

[5] = target: GARP R170A / TGF-β1 complex (human, UniProt Q14392 20-662; P01137 30-390); experiment: as above
Sequence of GARP R170A / TGF-β1 complex (Q14392 20-662 R170A limits assumed, chain 1 of 2): as the sequence (Q14392 20-662 G139N limits assumed, chain 1 of 2) above, with N120G, R151A counted along it
Sequence of GARP R170A / TGF-β1 complex (P01137 30-390 limits assumed, chain 2 of 2): as the sequence (P01137 30-390 limits assumed, chain 2 of 2) above
Procedure: as §1, §2

[6] = target: GARP / TGF-β1 E146R complex (human, UniProt Q14392 20-662; P01137 30-390); experiment: as above
Sequence of GARP / TGF-β1 E146R complex (Q14392 20-662 limits assumed, chain 1 of 2): as the sequence (Q14392 20-662 G139N limits assumed, chain 1 of 2) above, with N120G counted along it
Sequence of GARP / TGF-β1 E146R complex (P01137 30-390 E146R limits assumed, chain 2 of 2): as the sequence (P01137 30-390 limits assumed, chain 2 of 2) above, with E117R counted along it
Procedure: as §1, §2

[7] = target: GARP / TGF-β1 Q272Y complex (human, UniProt Q14392 20-662; P01137 30-390); experiment: as above
Sequence of GARP / TGF-β1 Q272Y complex (Q14392 20-662 limits assumed, chain 1 of 2): as the sequence (Q14392 20-662 G139N limits assumed, chain 1 of 2) above, with N120G counted along it
Sequence of GARP / TGF-β1 Q272Y complex (P01137 30-390 Q272Y limits assumed, chain 2 of 2): as the sequence (P01137 30-390 limits assumed, chain 2 of 2) above, with Q243Y counted along it
Procedure: as §1, §2

[8] = target: GARP / TGF-β1 Y284A complex (human, UniProt Q14392 20-662; P01137 30-390); experiment: as above
Sequence of GARP / TGF-β1 Y284A complex (Q14392 20-662 limits assumed, chain 1 of 2): as the sequence (Q14392 20-662 G139N limits assumed, chain 1 of 2) above, with N120G counted along it
Sequence of GARP / TGF-β1 Y284A complex (P01137 30-390 Y284A limits assumed, chain 2 of 2): as the sequence (P01137 30-390 limits assumed, chain 2 of 2) above, with Y255A counted along it
Procedure: as §1, §2

[9] = target: T2, GARP / TGF-β1 Y336A complex (human, UniProt Q14392 20-662; P01137 30-390); experiment: as above
T2 sequence (Q14392 20-662 limits assumed, chain 1 of 2): as the sequence (Q14392 20-662 G139N limits assumed, chain 1 of 2) above, with N120G counted along it
T2 sequence (P01137 30-390 Y336A limits assumed, chain 2 of 2): as the sequence (P01137 30-390 limits assumed, chain 2 of 2) above, with Y307A counted along it
Procedure: as §1, §2

[10] = target: GARP / TGF-β1 S337A complex (human, UniProt Q14392 20-662; P01137 30-390); experiment: as above
Sequence of GARP / TGF-β1 S337A complex (Q14392 20-662 limits assumed, chain 1 of 2): as the sequence (Q14392 20-662 G139N limits assumed, chain 1 of 2) above, with N120G counted along it
Sequence of GARP / TGF-β1 S337A complex (P01137 30-390 S337A limits assumed, chain 2 of 2): as the sequence (P01137 30-390 limits assumed, chain 2 of 2) above, with S308A counted along it
Procedure: as §1, §2

[11] = target: GARP / TGF-β1 K338E complex (human, UniProt Q14392 20-662; P01137 30-390); experiment: as above
Sequence of GARP / TGF-β1 K338E complex (Q14392 20-662 limits assumed, chain 1 of 2): as the sequence (Q14392 20-662 G139N limits assumed, chain 1 of 2) above, with N120G counted along it
Sequence of GARP / TGF-β1 K338E complex (P01137 30-390 K338E limits assumed, chain 2 of 2): as the sequence (P01137 30-390 limits assumed, chain 2 of 2) above, with K309E counted along it
Procedure: as §1, §2

[12] = target: GARP Y137H / TGF-β1 complex (human, UniProt Q14392 20-662; P01137 30-390); experiment: flow cytometry on transfected 293T cells, 5 ug/ml; grade of Loss of binding read by footnote 2 (error bar crosses the 50% threshold)
Sequence of GARP Y137H / TGF-β1 complex (Q14392 20-662 Y137H limits assumed, chain 1 of 2): as the sequence (Q14392 20-662 G139N limits assumed, chain 1 of 2) above, with Y118H, N120G counted along it
Sequence of GARP Y137H / TGF-β1 complex (P01137 30-390 limits assumed, chain 2 of 2): as the sequence (P01137 30-390 limits assumed, chain 2 of 2) above
Excerpt: (§3) Resolution of the crystal structure of MHG-8 Fab/GARP/TGF-β1 complexes and analysis with the CONTACT software allowed the identification of 22 amino-acids in GARP, 8 amino-acids in LAP and 6 amino-acids in mature TGF-β1 that are located less than 5 Å away from an amino-acid of the light or heavy chain of the MHG-8 Fab (Tables 7a, b and c, and Table 8). Directed mutagenesis was used to construct plasmids encoding HA-tagged forms of GARP or TGF-β1 that are mutated at one, two, or three of these 36 positions (all mutations constructed are indicated in Table 8). […] Antibodies were used at a saturating concentration of 5 μg/ml for labeling. Binding of each antibody to a given mutant GARP/TGF-β1 complex was compared to their binding to wild type (WT) complexes, by determining an I_{m/wt} value (i.e. intensity of binding to mutant by comparison to WT). This value was calculated as follows: I_{m/wt} of antibody X=[Geom on mutant−Geom on control]/[Geom on WT−Geom on control]
(§4) The level of residual binding of anti-GARP or anti-LAP antibodies to each mutant was then calculated by comparison to WT, taking into account the expression levels of mutant and WT forms as measured with anti-HA antibodies. Residual binding was calculated as follows: Residual binding by an anti-GARP or anti-LAP antibody=[I_{m/wt} with anti-GARP or anti-LAP antibody]/[I_{m/wt} with anti-HA antibody]

[13] = target: T1, GARP R143Y / TGF-β1 complex; experiment: as above
Excerpt: as §3, §4

[14] = target: GARP R163E/T165A / TGF-β1 complex (human, UniProt Q14392 20-662; P01137 30-390); experiment: as above
Sequence of GARP R163E/T165A / TGF-β1 complex (Q14392 20-662 R163E/T165A limits assumed, chain 1 of 2): as the sequence (Q14392 20-662 G139N limits assumed, chain 1 of 2) above, with N120G, R144E, T146A counted along it
Sequence of GARP R163E/T165A / TGF-β1 complex (P01137 30-390 limits assumed, chain 2 of 2): as the sequence (P01137 30-390 limits assumed, chain 2 of 2) above
Excerpt: as §3, §4

[15] = target: T2, GARP / TGF-β1 Y336A complex; experiment: as above
Excerpt: as §3, §4

Sequence of GARP M111T/A112G/T113M / TGF-β1 complex (Q14392 20-662 M111T/A112G/T113M limits assumed, chain 1 of 2): as the sequence (Q14392 20-662 G139N limits assumed, chain 1 of 2) above, with M92T, A93G, T94M, N120G counted along it
Sequence of GARP M111T/A112G/T113M / TGF-β1 complex (P01137 30-390 limits assumed, chain 2 of 2): as the sequence (P01137 30-390 limits assumed, chain 2 of 2) above

Ratio of EC50 (mutant / wt) [1]: 1.2
Ratio of EC50 (mutant / wt) [2]: 1.2
Ratio of EC50 (mutant / wt) [3]: 0.7
Ratio of EC50 (mutant / wt) [4]: 1.6
Ratio of EC50 (mutant / wt) [5]: 1.5
Ratio of EC50 (mutant / wt) [6]: 0.8
Ratio of EC50 (mutant / wt) [7]: 0.9
Ratio of EC50 (mutant / wt) [8]: 1.9
Ratio of EC50 (mutant / wt) [9]: 1.9
Ratio of EC50 (mutant / wt) [10]: 1.4
Ratio of EC50 (mutant / wt) [11]: 7.2
residual binding on mutant by comparison to WT [12]: ≥ 50%
residual binding on mutant by comparison to WT [13]: ≥ 50%
residual binding on mutant by comparison to WT [14]: ≥ 50%
residual binding on mutant by comparison to WT [15]: ≥ 50%
B1: LHG-10 (antibody, human IgG1, V domains shown)
VH: EVQLVQPGAELRNSGASVKVSCKASGYRFTSYYIDWVRQAPGQGLEWMGRIDPEDGGTKYAQKFQGRVTFTADTSTSTAYVELSSLRSEDTAVYYCARNEWETVVVGDLMYEYEYWGQGTQVTVSS
VL: DIQMTQSPTSLSASLGDRVTITCQASQSISSYLAWYQQKPGQAPKLLIYGASRLQTGVPSRFSGSGSGTSFTLTISGLEAEDAGTYYCQQYDSLPVTFGQGTKVELK
notes: llama-derived V regions in a full human IgG1
